Drawing on paper PMC4283936, this text covers binding result, Kd and binding signal for eleven molecules.

Series [1] has as its target His-PhoP (Mycobacterium tuberculosis, UniProt P71814 1-247). The experiment in a line: SELEX.
The target in series [2] is T1, PhoP (Mycobacterium tuberculosis, UniProt P71814 1-247). The experiment in a line: ITC.
The target of series [3] is T1, PhoP. The experiment in a line: ITC. This is another data set of the same source. In general terms: Isothermal titration calorimetry measures the heat released or taken up as one component is titrated into another.
The target in series [4] is T1, PhoP. The experiment in a line: ITC. This is another data set of the same source.
Series [5] concerns the target T1, PhoP. The experiment in a line: competition.

B1: RD25 (dominant SELEX sequence) (dsDNA)
DNA 1: CTGGAGCATATGGTCCAGTTAGTACCTCACAGCACTTTCAGAGCTTTCATATGCCTGCACC
DNA 2: GGTGCAGGCATATGAAAGCTCTGAAAGTGCTGTGAGGTACTAACTGGACCATATGCTCCAG
With B1, the binding result in series [1] is “binds”.

B2: lipF -214 (dsDNA)
DNA 1: GGGCTCCCATCGAGATCACCGAAAGCGG
DNA 2: CCGCTTTCGGTGATCTCGATGGGAGCCC
As to B2, the binding result in series [2] is “no binding”.

B3: RD6m23 (dsDNA)
DNA 1: AGTACCTCACAGCAATTTCACAGCTTTCAT
DNA 2: ATGAAAGCTGTGAAATTGCTGTGAGGTACT
Take B3: the binding result in series [3] was “binds”.

B4: fadD9 (dsDNA)
DNA 1: CATCTCACAGCCGATCAGCAGCAGGCTT
DNA 2: AAGCCTGCTGCTGATCGGCTGTGAGATG
For the molecule B4, the Kd in series [2] worked out at 82 ± 4 nM.

B5: RD6m1 (dsDNA)
DNA 1: AGTACCGGCGCTGACTTTCACAGCTTTCAT
DNA 2: ATGAAAGCTGTGAAAGTCAGCGCCGGTACT
As for B5, the binding signal in series [4] was ~40 fold lower affinity than RD6.

B6: nuoA -52 (dsDNA)
DNA 1: CCGGTCACCGCCCGGCCGCCGCGCTGGC
DNA 2: GCCAGCGCGGCGGCCGGGCGGTGACCGG
For B6, the binding result in series [2] is listed as “no binding”.

B7: WB6 D1 (dsDNA)
DNA 1: ATACACAGCTGATTAACAGGATCTATGCC
DNA 2: GGCATAGATCCTGTTAATCAGCTGTGTAT
Turning to B7, in series [5], the binding result is recorded as “binds”.

B8: WB6 D5 (dsDNA)
DNA 1: AGATACACAGCTGATTAACAGGATCTA
DNA 2: TAGATCCTGTTAATCAGCTGTGTATCT
With B8, the binding result in series [5] is “binds”.

B9: nuoA -63 (dsDNA)
DNA 1: GTCACGGCAGCCCGGTCACCGCCCGGCC
DNA 2: GGCCGGGCGGTGACCGGGCTGCCGTGAC
Consider B9, for which the binding result in series [2] is on record as “no binding”.

B10: espA -246 (dsDNA)
DNA 1: CTTGGGATCGCGCCGCCTACACGGCGGTTGGC
DNA 2: GCCAACCGCCGTGTAGGCGGCGCGATCCCAAG
As to B10, the binding result in series [2] was “no binding”.

B11: Rv3134c (dsDNA)
DNA 1: GCCATTTCTGGGACTTTGCTGTGAAAAGCTG
DNA 2: CAGCTTTTCACAGCAAAGTCCCAGAAATGGC
Regarding B11, the Kd in series [2] came to 61.7 ± 5.3 nM.

What is called Kd is the constant that tells how readily two partners part at equilibrium. Read a low Kd as a tighter complex.
